Assay [1] deals with T1, soluble recombinant human IL-6 receptor (SR344) (human, UniProt P08887 20-344).
T1 construct: range 1-344; also called soluble IL-6 receptor; soluble human IL-6 receptor
T1 sequence (looked up): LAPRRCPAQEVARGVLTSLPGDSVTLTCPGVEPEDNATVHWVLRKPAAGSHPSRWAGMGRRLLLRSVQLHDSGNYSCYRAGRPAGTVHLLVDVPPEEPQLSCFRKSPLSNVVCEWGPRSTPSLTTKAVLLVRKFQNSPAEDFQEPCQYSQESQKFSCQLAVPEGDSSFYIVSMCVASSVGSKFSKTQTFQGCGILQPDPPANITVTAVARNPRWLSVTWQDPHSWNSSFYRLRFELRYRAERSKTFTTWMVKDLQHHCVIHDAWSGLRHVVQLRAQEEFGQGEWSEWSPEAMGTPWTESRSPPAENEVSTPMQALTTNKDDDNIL
Briefly: SPR Biacore T100; immobilised biotinylated SR344 as membrane-type IL-6 receptor; against TOCILIZUMAB
A general note: SPR reads the build-up and loss of mass on a sensor chip optically.
Experimental: (§1) The binding to membrane-type IL-6 receptor was assessed by evaluating the binding to soluble human IL-6 receptor immobilized onto the sensor chip. SR344 was biotinylated by a method known to those skilled in the art. Based on the affinity between biotin and streptavidin, biotinylated soluble human IL-6 receptor was immobilized onto the sensor chip via streptavidin. All measurements were conducted at 37° C. The mobile phase buffer was 10 mM MES (pH 5.8), 150 mM NaCl, and 0.05% Tween 20. […] The dissociation rate constant (kd (1/s)) at pH 5.8 was calculated using Biacore T100 Evaluation Software (GE Healthcare) by fitting only the dissociation phase at pH 5.8. The sample concentration was 0.25 pg/ml. Binding was carried out in 10 mM MES (pH 7.4), 150 mM NaCl, and 0.05% Tween 20, and dissociation was carried out in 10 mM MES (pH 5.8), 150 mM NaCl, and 0.05% Tween 20. Likewise, the dissociation rate constant (kd (1/s)) at pH 7.4 was calculated using Biacore T100 Evaluation Software (GE Healthcare) by fitting only the dissociation phase at pH 7.4. The sample concentration was 0.5 pg/ml. Binding was carried out in 10 mM MES (pH 7.4), 150 mM NaCl, and 0.05% Tween 20, and dissociation was carried out in 10 mM MES (pH 7.4), 150 mM NaCl, and 0.05% Tween 20.

Assay [2] deals with T1, soluble recombinant human IL-6 receptor …. Briefly: SPR Biacore T100, 37 C; biotinylated SR344 immobilised via streptavidin as membrane-type IL-6 receptor; ratio of dissociation rates.
Experimental: as §1

Substitutions are numbered along the chain they refer to.

B1: H3pI/L73 (antibody, human IgG1, kappa, V domains shown)
VH: QVQLQESGPGLVKPSETLSLTCAVSGHSISHDHAHSWVRQPPGEGLEWIGYISYSGITNYNPSLKGRVTISRDTSKNQFSLKLSSVTAADTAAYYCARSLARTTAMDYWGEGTLVTVSS
VL: DIQMTQSPSSLSASVGDSVTITCQASQHISSHLNWYQQKPGKAPELLIYYGSHLHSGVPSRFSGSGSGTDFTFTISSLEAEDAATYYCGQGNRLPYTFGQGTKVEIER
notes: also called H3pI-IgG1/L73-kappa
For B1, the “fold increase of pH dependence of the dissociation rate against TOCILIZUMAB” value in assay [1] was roughly 2.6 times.

B2: Fv3-M73 (antibody, V domains shown)
VH: QVQLQESGPGLVKPSETLSLTCAVSGHSISHDHAWSWVRQPPGEGLEWIGFISYSGITNYNPTLQGRVTISRDNSKNTLYLQMNSLRAEDTAVYYCARSLARTTAMDYWGEGTLVTVSS
VL: B1 VL with Q27R, H28D, H55L
notes: Fully humanized IL-6 receptor antibody; also called VH4-M73/VL1-kappa
For B2, the “fold improvement of pH dependency of the dissociation rate against TOCILIZUMAB” value in assay [1] is roughly 11 times. Also, the “kd(pH 5.8)/kd(pH 7.4) pH …” value in assay [2] was determined as 10.9.

B3: Fv4-M73 (antibody, V domains shown)
VH: B2 VH with T63S
VL: B1 VL with Q27T, H28D, H55L
notes: Fully humanized IL-6 receptor antibody; also called VH3-M73/VL3-kappa
As for B3, the “fold improvement of pH dependency of the dissociation rate against TOCILIZUMAB” value in assay [1] was roughly 10 times. Moreover, in assay [2], the “kd(pH 5.8)/kd(pH 7.4) pH …” value worked out at 10.1.

B4: TOCILIZUMAB (antibody, human IgG1, kappa)
heavy: not shown
light: not shown
notes: Humanized anti-IL-6 receptor IgG1 antibody; H chain WT-IgG1, L chain WT-kappa; also called TOCILIZUMAB-IgG1; WT-IgG1/WT-kappa
Consider B4, for which the “kd(pH 5.8)/kd(pH 7.4) pH …” value in assay [2] turned out to be 1.

The values are drawn from patent US20200231688A1 (published 2020).
